Assay results reported in patent US8486893B2, “Treatment of conditions involving demyelination” (Biogen Idec MA Inc., priority 2004, dated 2013).

Columns and labels:
[1] = tested on: RhoA-GTP; test: RhoA-GTP levels in oligodendrocyte lysates by western blotting; type: cell-based, rat; conditions: FIG. 9A
Description: A strong candidate signaling pathway that is implicated in the control of oligodendrocyte differentiation is the Rho family of GTPases. Rho GTPases regulate cellular morphology, and reduced RhoA-GTP amounts are required for oligodendrocyte differentiation. See Liang, X, et al., J. Neurosci. 24:7140-7149 (2004). To determine whether Sp35 signals through the RhoA pathway, RhoAGTP levels in cell lysates of oligodendrocytes treated with Sp35-Fc were compared with levels in the corresponding control via western blotting.

[2] = tested on: co-cultures of dorsal root ganglion (DRG) neurons and oligodendrocytes; test: In vitro myelination in co-cultures of DRG neurons and oligodendrocytes; type: cell-based, rat
Procedure: The role of Sp35 in myelination was examined in vitro by treating co-cultures of dorsal root ganglion (DRG) neurons and oligodendrocytes with Sp35-Fc and testing for myelination by immunohistochemistry and electron microscopy. For these studies, it was necessary to first generate primary cultures of DRG neurons and of oligodendrocytes.
Female Long Evans rat E14-E17 embryonic dorsal root ganglia were cultured as described by Plant et al., J. Neurosci. 22:6083-91 (2002). Dissected DRGs were plated on poly-L-lysine-coated cover slips (100 μg/ml) for 2 weeks in the presence of fluorodeoxyuridine for days 2-6 and days 8-11 in NLA medium containing 1× B27, 100 ng/ml NGF (Invitrogen).
A2B5^+ oligodendrocytes were prepared as described in Example 1, and were harvested by trypsinization.
For coculture studies, A2B5^+ oligodendrocytes were added to DRG neuron drop cultures in the presence or absence of 10 μg/ml Sp35-Fc. The culture medium (Neurobasal medium supplemented with B27 and 100 ng/ml NGF) was changed, and fresh Sp35-Fc was added to the cells every 3 d. To identify changes in myelination, 2-week-old cultures were stained by immunohistochemical staining (“IHC”) for neurofilaments with anti-βIII-tubulin antibody to identify axons, or anti-MBP antibody to identify oligodendrocytes., and 4-week-old cultures were subjected to SDS-PAGE followed by western blot analyses to quantify the MBP. In selected examples, cells were fixed for electron microscopy studies by adding 2.5% gluteraldehyde directly onto the cover slips. Myelinated axons in the 2-week-old cultures were quantified by counting the number of myelinated internode bundles that were derived from single MBP^+ oligodendrocytes. Samples were analyzed in duplicate. Error bars denote individual determinations. P values in all studies were determined using a one-way analysis of variance.
Several peptides containing portions of the Ig domain of Sp35 were examined in vitro, by treating co-cultures of dorsal root ganglion (DRG) neurons and oligodendrocytes with Sp35 Ig peptides and testing for myelination as described in Example 5.
For co-culture studies, A2B5^+ oligodendrocytes were added to DRG neuron drop cultures in the presence or absence of 10 μg/ml Sp35-Ig-Fc (Sp35 amino acids 417-493 fused to Fc). The culture medium (Neurobasal medium supplemented with B27 and 100 ng/ml NGF) was changed, and fresh Sp35-Ig-Fc was added to the cells every 3 d. To identify changes in myelination, 2-week-old cultures were stained by immunohistochemical staining (“IHC”) for neurofilaments with anti-βIII-tubulin antibody to identify axons, or anti-MBP antibody to identify oligodendrocytes and 4-week-old cultures were subjected to SDS-PAGE followed by western blot analyses to quantify the MBP.
We performed experiments to address the relative contributions to the myelination process of Sp35 in DRG neurons as compared to oligodendrocytes. We infected DRG neurons, oligodendrocytes and co-cultures (prepared as described in Example 5) with the FL-Sp35 and DN-Sp35 lentiviral vectors described in Example 1 and performed immunohistochemical straining for myelinated MBP cells after two weeks. A 2-fold increase in MBP levels in co-cultures where both cells express DN-Sp35 and a 2-fold decrease in MBP levels in co-cultures where both cells express FL-Sp35 was observed (FIG. 10G).

B1: Sp35-Fc: extra-cellular portion of human Sp35 (residues 1-532) fused to the hinge and Fc region of human IgG1 (protein)
chain: TGCPPRCECSAQDRAVLCHRKRFVAVPEGIPTETRLLDLGKNRIKTLNQDEFASFPHLEELELNENIVSAVEPGAFNNLFNLRTLGLRSNRLKLIPLGVFTGLSNLTKLDISENKIVILLDYMFQDLYNLKSLEVGDNDLVYISHRAFSGLNSLEQLTLEKCNLTSIPTEALSHLHGLIVLRLRHLNINAIRDYSFKRLYRLKVLEISHWPYLDTMTPNCLYGLNLTSLSITHCNLTAVPYLAVRHLVYLRFLNLSYNPISTIEGSMLHELLRLQEIQLVGGQLAVVEPYAFRGLNYLRVLNVSGNQLTTLEESVFHSVGNLETLILDSNPLACDCRLLWVFRRRWRLNFNRQQPTCATPEFVQGKEFKDFPDVLLPNYFTCRRARIRDRKAQQVFVDEGHTVQFVCRADGDPPPAILWLSPRKHLVSAKSNGRLTVFPDGTLEVRYAQVQDNGTYLCIAANAGGNDSMPAHLHVRSYSPDWPHQPNKTFAFISNQPGE
modifications: left off: a dimerising Fc or GST
notes: extra-cellular portion of human Sp35 (residues 1-532) fused to the hinge and Fc region of human IgG1
RhoA-GTP amount versus control [1]: threefold reduction | expression of MBP by western blot ([2]; 4-week-old treated cocultures, 10 μg/ml for Fc fusions): increased | confocal microscopy of myelination ([2]; Sp35-Fc treated cocultures): MBP had encapsulated the axons | electron microscopy of myelination ([2]; cocultures treated 4 weeks, FIG. 10C): Multiple wellformed internodes | effect on myelination when both cell types overexpress DN-Sp35 ([2]; exogenously added): slight effects | effect on myelination when either cell type overexpresses DN-Sp35 alone ([2]; exogenously added): further enhanced myelination | effect on myelination in cocultures overexpressing FL-Sp35 ([2]; exogenously added, FL-Sp35 in either or both cell types): reversed the inhibition of myelination | axonal myelination (MBP+ myelinated axons) ([2]; treatment for 2 weeks, IHC, FIG. 10A): robust axonal myelination
